Earlier results as cited in US8232228B2 (priority 2002, dated 2012).

B1: HarpinEa: Hypersensitive response elicitor protein from Erwinia amylovora, amino acid sequence SEQ. ID. No. 3 (protein)
chain: MSLNTSGLGASTMQISIGGAGGNNGLLGTSRQNAGLGGNSALGLGGGNQNDTVNQLAGLLTGMMMMMSMMGGGGLMGGGLGGGLGNGLGGSGGLGEGLSNALNDMLGGSLNTLGSKGGNNTTSTTNSPLDQALGINSTSQNDDSTSGTDSTSDSSDPMQQLLKMFSEIMQSLFGDGQDGTQGSSSGGKQPTEGEQNAYKKGVTDALSGLMGNGLSQLLGNGGLGGGQGGNAGTGLDGSSLGGKGLQNLSGPVDYQQLGNAVGTGIGMKAGIQALNDIGTHRHSSTRSFVNKGDRAMAKEIGQFMDQYPEVFGKPQYQKGPGQEVKTDDKSWAKALSKPDDDGMTPASMEQFNKAKGMIKRPMAGDTGNGNLQARGAGGSSLGIDAMMAGDAINNMALGKLGAA
modifications: Erwinia amylovora - harpinEa
- heat stable at 100° C.: at least 10 minutes
